# In US7960115B2, “DNA binding protein” (Wright State University, priority 2001, dated 2011):
# How the values were obtained:
# [1] = biological target: T1, DUE-B binding to dsDNA derived from the DUE sequence (Homo sapiens, UniProt Q8TEA8); assay: Fluorescence polarization assay of DUE-B binding to dsDNA
# T1 construct: 6his (N); V5 (N); made in house; host or cells: baculovirus / SF9 insect cells
# T1 sequence (Q8TEA8 1-209): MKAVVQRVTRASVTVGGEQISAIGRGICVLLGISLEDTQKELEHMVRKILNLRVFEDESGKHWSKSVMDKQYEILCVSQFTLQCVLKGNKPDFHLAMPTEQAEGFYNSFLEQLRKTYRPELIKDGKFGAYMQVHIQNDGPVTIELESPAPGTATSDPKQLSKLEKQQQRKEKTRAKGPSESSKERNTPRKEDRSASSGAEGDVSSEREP
# Text: Described herein is the first generation of a novel assay for determining the effects of molecules on the association of DUE-B with double stranded DNA (dsDNA). This assay uses fluorescence polarization to measure the interaction of DUE-B with dsDNA. This assay consists of 4 components: • a) a dsDNA derived from the DUE sequence:
# • Both the sense and antisense strands are labeled with FITC at the 3′ end using a 6 carbon spacer. • b) Purified DUE-B. Human DUE-B tagged at the amino terminus with the 6his and V5 tags is synthesized in baculovirus and purified using Ni^2+-Sepharose™ chromatography. • c) Reaction buffer (1×): […] Tris HCl (pH 7.5), 800 mM NaCl, 10 mM EDTA, 100 mM β-mercaptoethanol, 1% (w/v) Tween-20™. • d) Fluorescence polarization plate reader (Tecan Polarion™ or other equivalent device)
# A mastermix is prepared consisting of 1× reaction buffer, 2 nM labeled oligo and 0.125 or 0.250 ug DUE-B per 100 ul of mastermix. Compounds (in this case steroids) are added to the bottom of a 96 well plate. 100 ul of mastermix is added to each well and allowed to equilibrate for 30 sec. Fluorescence polarization is then measured.
# In FIG. 23A, the effect of increasing concentrations of DUE-B on the polarization of dsDNA was assessed. As expected, polarization of the dsDNA becomes saturated as the DUE-B protein concentration increases. […]
# [2] = test system: DNA replication in Xenopus oocyte extract; assay: Replication in Xenopus oocyte extracts; type: biochemical, Xenopus laevis
# [3] = ATPase activity by thin layer chromatography; type: biochemical
# Procedure: In FIG. 11, DUE-B expressed in baculovirus infected insect cells was chromotographed as in FIG. 8. To locate the eluted DUE-B, fractions were assayed by ELISA using DUE-B antibody or 6his antibody. ATPase activity was monitored by thin layer chromatography of alternate fractions incubated with gamma-^32P-ATP. […] In FIG. 12, time courses of ATPase activity were measured for three concentrations of DUE-B protein.
# Purified DUE-B (200-1000 ng) expressed in bacteria or insect cells, or cell extracts from HeLa cells (˜500 ng) or Xenopus oocytes (˜500 ng), were chromatographed on a one-meter Sephacryl™ S-200 column. Protein elution was monitored by Western blot or by ELISA using antibodies to DUE-B or the his6 tag. ATPase activity was monitored by thin layer chromatography on PEI cellulose (Patrick, S. M., et al., Biochem. Biophys. Acta 1354:279-290, 1997). RNA was isolated using an RNAeasy kit (Qiagen) and DUE-B mRNA expression was monitored by Northern blotting of total RNA electrophoresed on denaturing formaldehyde/agarose gels using a DUE-B cDNA probe labeled with alpha-^32P-dCTP by random primer extension.
Molecule,"effect on the dsDNA binding of DUE-B on retest ([1]; retest in two different concentrations of DUE-B, FIG. 24B)","increase in polarization of dsDNA by DUE-B ([1]; steroid at 10 uM, FIG. 24A) [%]","effect on DNA replication, time course ([2]; double stranded DNA preincubated in extract, DUE-B added with alpha-32P-dCTP, FIG. 18A)","effect on replication of single stranded DNA ([2]; oocyte extract, FIG. 20D)","effect on replication of sperm chromatin ([2]; preincubated 30' with the extract versus added simultaneously with sperm chromatin, FIG. 19)","effect on MCM7 loading (pre-RC formation) on chromatin ([2]; sperm chromatin, anti-MCM7 immunoblot, FIG. 20C)","ATPase activity ([3]; baculovirus expressed DUE-B, FIG. 12)",ATP hydrolyzed ([3]; present assay conditions)
"C[C@]12CC[C@@H]3c4ccc(O)cc4CC[C@H]3[C@@H]1CC(O)C2O (some centres unmarked) [Steroid E2850, 1,3,5(10)-estratrien-3,16,17-triol]",stimulatory effect of E2850 was duplicated,100,,,,,,
"DUE-B: human DNA Unwinding Element binding protein (SEQ ID NO:2), baculovirus expressed, binds the c-myc replication origin DUE (protein, listed as Homo sapiens) MKAVVQRVTRASVTVGGEQISAIGRGICVLLGISLEDTQKELEHMVRKILNLRVFEDESGKHWSKSVMDKQYEILCVSQFTLQCVLKGNKPDFHLAMPTEQAEGFYNSFLEQLRKTYRPELIKDGKFGAYMQVHIQNDGPVTIELESPAPGTATSDPKQLSKLEKQQQRKEKTRAKGPSESSKERNTPRKEDRSASSGAEGDVSSEREP",,,transiently inhibited DNA replication,does not inhibit replication of single stranded DNA,more effective at inhibiting replication,does not inhibit MCM7 loading,approximately 30 fmol gamma-32P-ATP hydrolyzed,> 0.5 fmol ATP per minute per fmol protein
